Results published in US20100247589A1.
Where no end group is shown, it is not given here. The star is where a group is joined. Biotin = O=C1N[C@H]2[C@H](CS[C@H]2CCCCC(=O)*)N1

Columns and labels:
[1] = biological target: tooth pellicle (thin film derived from salivary glycoproteins, formed in a human mouth) (human); assay: ELISA, 20 uM biotinylated peptide on pellicle-coated bovine enamel, streptavidin-HRP, normalized to DenP03; no-peptide control -0.001
[2] = biological target: tooth pellicle (thin film derived from salivary glycoproteins, formed in a human mouth) (human); assay: phage ELISA on 30 min pellicle-coated bovine enamel, anti-M13-HRP, normalized to DenP3; no-phage control 0.094

SSRPQAAQVHMMQHSRPTTK(Biotin) [DenP13-A]
O.D.450 (normalized) [1]: 0.699

SMWHDITKRYRNPSEMVSAY [DenP107]
O.D.450 (normalized) [2]: 0.726

SSRPIYPNESMSTSNVRGPYHPK(Biotin) [DenP22-A]
O.D.450 (normalized) [1]: 0.354

SFSWHRGDWELGHQSKTMGM [DenP106]
O.D.450 (normalized) [2]: 1.52

SSRPGPQHVLMQDTHQGYAFDNK(Biotin) [DenP16-A]
O.D.450 (normalized) [1]: 0.309

SSRPSEARARTFNDHTTPMPIIK(Biotin) [DenP14-A]
O.D.450 (normalized) [1]: 0.269

SSRPDLGTFPNRTLKMAAHK(Biotin) [DenP11-A]
O.D.450 (normalized) [1]: 0.454

SSRPNGNNHTDIPNRSSYTGGSFAK(Biotin) [DenP1-A]
O.D.450 (normalized) [1]: 0.154

GVHQYSRPTVPSYLWTSGQH [DenP103]
O.D.450 (normalized) [2]: 0.879

SSRPTYQGVPSWPAVIDDAIRRK(Biotin) [DenP19-A]
O.D.450 (normalized) [1]: 0.712

QFNQTSHSFMHGTSGYVPGK [DenP105]
O.D.450 (normalized) [2]: 0.47

AIEYQHSATTPWTMRTRLPP [DenP101]
O.D.450 (normalized) [2]: 0.467

SSRPAPPTYQTASYPHNLPSKRKMK(Biotin) [DenP28-A]
O.D.450 (normalized) [1]: 0.811

SSRPELDHDSRHYMNGLQRKVTK(Biotin) [DenP15-A]
O.D.450 (normalized) [1]: 0.46

SSRPTTGSSSQADTSASMSIVPAHK(Biotin) [DenP17-A]
O.D.450 (normalized) [1]: 0.143

SSRPHDPNHLTHQARTIYRNANHTK(Biotin) [DenP23-A]
O.D.450 (normalized) [1]: 0.85

SSRPYLLPKDQTTAPQVTPIVQHKK(Biotin) [DenP5-A]
O.D.450 (normalized) [1]: 0.462

SSRPVNPNWVETQALHQPPGNTK(Biotin) [DenP20-A]
O.D.450 (normalized) [1]: 0.59

GYQPHYVDHTIGWQPMIRPN [DenP104]
O.D.450 (normalized) [2]: 0.79

EFYPFAEVPPEKSGIGRQVF [DenP102]
O.D.450 (normalized) [2]: 0.52

SSRPEFPYYNDNPPNPERHTLRK(Biotin) [DenP7-A]
O.D.450 (normalized) [1]: 0.356

SSRPTMTNHVYNSYTEKHSSTHRSK(Biotin) [DenP2-A]
O.D.450 (normalized) [1]: 0.273

SSRPQVPDYLSPTHQKKAFLEIPTK(Biotin) [DenP29-A]
O.D.450 (normalized) [1]: 0.468

SSRPVEPATKNMREARSSTQMRRIK(Biotin) [DenP4-A]
O.D.450 (normalized) [1]: 0.803

SSRPFDGIGLGTATRHQNRK(Biotin) [DenP12-A]
O.D.450 (normalized) [1]: 0.475
